Assay results reported in the supplement of paper PMC12042874.
± gives the uncertainty stated by the source.

Assay: amyloid nucleation score (Sup35N fusion, yeast selection) (log enrichment); library NNK2; higher = more nucleation; inactive = no reads after selection
Summary of the method: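 Libraries of peptides of 20 random codons fused to Sup35N were expressed in psi-negative yeast and induced 24 hours with 100 μM copper sulfate. Selection was 7 days at 30°C on medium lacking adenine and uracil, and plasmid inserts were Illumina-sequenced before and after selection. Nucleation score is the DiMSum log enrichment of output over input reads, centred on the mode score of non-aggregating sequences, and sequences with under 100 input reads were left out.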

Substance | amyloid nucleation score
PTRDKVATEGHGNGLIYNRF | 0.306 ± 0.65
PVFVLNVLLVILDPFLGLSN | -0.237 ± 0.34
PVGLY | -0.308 ± 0.42
PVPNYCSEII | -1.1 ± 1
PVYPAAYWIVSDGGCNVSWE | -0.789 ± 0.37
PWCTWSFVADLENSYRRWVR | 2.57 ± 0.12
PYFCDIMNGTCRYSLYGFSM | 0.37 ± 0.51
PYLPLRYFCWGSK | -0.249 ± 0.79
QAFPDLTVVRACYMHLL | 0.54 ± 0.25
QAHVQILYKL | 5.95 ± 0.054
QARLLSYLGDLVLASSWKVL | -0.891 ± 0.64
QCSIVWR | 6.61 ± 0.076
QCYAMSSLMMLYLFFLWGCG | -1.05 ± 0.55
QDGFRMYVLFDYNQCREFCS | 1.23 ± 0.26
QDLVGGCQLSHHHCNLSCGF | inactive
QDNRYPLFVLSTLLSLIFLL | inactive
QEVRSF | 0.6 ± 0.66
QFAHFKNLWVFVLSCRWLPT | -0.158 ± 0.35
QFDTPNTT | -0.169 ± 0.54
QFFMWTGGH | 2.84 ± 0.1
QFHFWMQRMMFPLEFVIWVW | 1.33 ± 0.34
QFILFCIPTPNQ | 4.93 ± 0.08

Substance | amyloid nucleation score
QFRTIHAHYNFFG | 7.68 ± 0.048
QGLSCEGILWLVEYSQTFFG | -1.27 ± 1.1
QGVDNGDRGRGRNLWASMRR | 1.34 ± 0.39
QGYLLFN | 0.467 ± 0.19
QICHHIDYVFRCHDI | 0.585 ± 0.8
QIFFWSSFN | inactive
QIHGVTFFSQRTGTCASEP | -0.875 ± 0.44
QKACWNPGQRLLVTDLHYQP | 0.27 ± 0.64
QLALLMFMQTFNSYS | 7.43 ± 0.059
QLFAVQSLCRKRRQLRWLPT | 0.463 ± 0.64
QLHIWVVIRYPLYLINKTVW | 0.436 ± 0.8
QLTRTVIYCLLFSAFHFYIS | 2.39 ± 0.22
QLVFYSNFVSKDVNVDLQWL | 5.75 ± 0.062
QLVGSLGGAQGTAGRYRYTG | 0.658 ± 0.51
QLYLTVTNGFVRCTTASDVL | 1.14 ± 0.47
QMISLYAKQGVFPFGLSCSC | 2.02 ± 0.11
QMLDTRSLGNDYNYNVYSLA | -1.41 ± 0.39
QNCQFGMH | 0.88 ± 0.48
QNFNILIGRGDVY | 1.6 ± 0.23
QRDDVISRCVYHYFKVVPGA | -0.183 ± 0.55
QRGFLRVPSLWCSFCLH | -0.176 ± 1.1
QRGRGERMFITQCLVDRMCF | -0.117 ± 0.31

Substance | amyloid nucleation score
QRMTNMSF | -1.27 ± 1
QRQDDSVFHDVSHLGQGSSK | 9.066 ± 0.078
QRVFDLKSGFGLNRDILVCL | inactive
QSAFSKF | inactive
QSAVICVGRCGNCHPPTEL | 2.87 ± 0.1
QSLIDSVHVALHKLLRRYVK | -0.232 ± 0.65
QSRSYFRRGVTSCLHPGWET | 0.452 ± 0.53
QSTSQLRLYELSR | -0.206 ± 1.1
QTGCSITFLKFGRSAVSTVK | 0.378 ± 0.27
QTMVCTTISAPKSGSAWERS | 0.109 ± 0.37
QVCRDDYEVDFLGCGCPRGH | -0.588 ± 0.44
QVFRFSYKCPCHAVG | 1.75 ± 0.15
QVGKQADFRVAWLRVIHVF | 0.292 ± 0.56
QVIFI | inactive
QVLIIPLWKNGLRTIIRWL | 0.106 ± 1
QVPGYIAQSKML | 0.407 ± 0.43
QVSDVRDLNFWISVTHVEVG | 3.4 ± 0.12
QWCLSNNVLWEMGVW | inactive
QWIAGVYV | 3.23 ± 0.048
QYRFFVYKLRRQIIYV | -0.191 ± 1.1
QYWQYWSWIGCVCLLCGWRF | 0.91 ± 0.26
RAANLSLHSNGDTGGESVSD | inactive

Substance | amyloid nucleation score
RAKTNSVGDLQYGIHVPMKG | -0.043 ± 0.37
RARFHFVKTCSTQRSMPHMG | 3.21 ± 0.073
RAVEEYAVPS | 0.878 ± 0.35
RAYCAYTLR | 5.94 ± 0.071
RCEFFGVGMSREKNMGCSKC | 0.875 ± 0.47
RCEFSACMCGVCGAYKCMRF | 5.3 ± 0.064
RCFSTHVAQDQLFVY | inactive
RCKIRSLFSNLYPDSVFTLT | inactive
RCKYWNTKCTTIYRGRVSYL | -0.733 ± 0.29
RCLTELTNETNYVGAG | 0.405 ± 0.3
RCPGCDE | 1.26 ± 0.25
RDNRSLTELLNRTMVHFVIM | inactive
RDVRQVQRWSYCWRARTRSA | 1.19 ± 0.25
REAAVHRLIAWIGFRCRCQV | -0.317 ± 1.1
RECFGGVQYRVRFSKFPYES | -0.663 ± 0.5
REDGSPVGLLGGDHWVDFAQ | 1.38 ± 0.19
REEYCSFTICWSLDALHDRG | 0.527 ± 0.65
REFDRNFTPYPSQQELPIWW | 0.827 ± 0.39
REFLMD | inactive
REGVQVIQTGLVEYKLG | -0.029 ± 0.79
